Measured values published in the supplement of paper PMC9112550, “Optimization of the antimicrobial peptide Bac7 by deep mutational scanning” (BMC Biology, 2022).

system: Escherichia coli TOP10; experiment: shrunken log2 fold change of peptide-encoding DNA abundance (4.5 h post-induction vs induction); higher = less antimicrobial activity (less host growth inhibition); conditions: time post-induction: 4.5 h; library: site-saturation at positions 5, 18, 19, 20
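Further: peptides expressed intracellularly from a pBAD plasmid library in pooled LB shake-flask culture, induced with 0.3% L-arabinose, DNA abundance read by NGS, three biological replicates, DESeq2 with apeglm shrinkage.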

Sequence | shrunken log2 fold change
RRIRCRPPRLPRPRPRPIPYPRP | -0.0796
RRIRGRPPRLPRPRPRPESSPRP | 1.26
RRIRSRPPRLPRPRPRPPENPRP | 0.679
RRIRDRPPRLPRPRPRPNYMPRP | -0.216
RRIRERPPRLPRPRPRPAIEPRP | -0.136
RRIRSRPPRLPRPRPRPAKLPRP | 0.195
RRIRFRPPRLPRPRPRPNICPRP | -0.252
RRIRFRPPRLPRPRPRPCMTPRP | 0.162
RRIRLRPPRLPRPRPRPNCHPRP | -0.156
RRIRQRPPRLPRPRPRPMPFPRP | -0.0697
RRIRMRPPRLPRPRPRPAGNPRP | 0.396
RRIRERPPRLPRPRPRPHDDPRP | -0.147
RRIRHRPPRLPRPRPRPTLDPRP | 0.0219
RRIRTRPPRLPRPRPRPLVSPRP | -0.0657
RRIRARPPRLPRPRPRPDDIPRP | 0.0386
RRIRERPPRLPRPRPRPKINPRP | -0.488
RRIRMRPPRLPRPRPRPIYIPRP | -0.156
RRIRYRPPRLPRPRPRPMDRPRP | -0.0498
RRIRPRPPRLPRPRPRPICHPRP | -0.0574
RRIRMRPPRLPRPRPRPGGIPRP | 0.545
RRIRPRPPRLPRPRPRPDKRPRP | 0.00792
RRIRMRPPRLPRPRPRPTYQPRP | -0.063
RRIRCRPPRLPRPRPRPQNPPRP | -0.144
RRIRLRPPRLPRPRPRPWCCPRP | -0.234
RRIRRRPPRLPRPRPRPRWFPRP | 0.524

Sequence | shrunken log2 fold change
RRIRKRPPRLPRPRPRPCPMPRP | -0.15
RRIRRRPPRLPRPRPRPTKYPRP | -0.198
RRIRQRPPRLPRPRPRPEPAPRP | 0.789
RRIRKRPPRLPRPRPRPRGSPRP | 0.319
RRIRERPPRLPRPRPRPYLRPRP | -0.319
RRIRWRPPRLPRPRPRPVFEPRP | 0.333
RRIRERPPRLPRPRPRPKILPRP | -0.0994
RRIRYRPPRLPRPRPRPKMLPRP | 0.0981
RRIRWRPPRLPRPRPRPIKYPRP | -0.744
RRIRSRPPRLPRPRPRPLPIPRP | 0.0503
RRIRCRPPRLPRPRPRPHLQPRP | -0.319
RRIRERPPRLPRPRPRPYENPRP | 0.0288
RRIRTRPPRLPRPRPRPHSKPRP | -0.2
RRIRSRPPRLPRPRPRPHCVPRP | -0.0724
RRIRIRPPRLPRPRPRPAAWPRP | 0.112
RRIRNRPPRLPRPRPRPMQHPRP | -0.0549
RRIRGRPPRLPRPRPRPIYRPRP | 0.2
RRIRCRPPRLPRPRPRPCCWPRP | 0.103
RRIRVRPPRLPRPRPRPSDLPRP | -0.196
RRIRIRPPRLPRPRPRPPLNPRP | -0.227
RRIRDRPPRLPRPRPRPTFSPRP | 0.743
RRIRMRPPRLPRPRPRPWGDPRP | 0.0652
RRIRDRPPRLPRPRPRPDGRPRP | 0.655
RRIRMRPPRLPRPRPRPFSTPRP | -0.0159
RRIRSRPPRLPRPRPRPQACPRP | 0.125

Sequence | shrunken log2 fold change
RRIRDRPPRLPRPRPRPRKLPRP | 0.0892
RRIRTRPPRLPRPRPRPCCNPRP | -0.282
RRIRARPPRLPRPRPRPIRNPRP | -0.179
RRIRGRPPRLPRPRPRPTISPRP | 0.534
RRIRARPPRLPRPRPRPACNPRP | 0.089
RRIRARPPRLPRPRPRPTNLPRP | 0.0653
RRIRIRPPRLPRPRPRPCGGPRP | 0.188
RRIRIRPPRLPRPRPRPYKFPRP | -0.616
RRIRHRPPRLPRPRPRPWYWPRP | -0.115
RRIRDRPPRLPRPRPRPGIRPRP | -0.174
RRIRTRPPRLPRPRPRPLANPRP | -0.105
RRIRIRPPRLPRPRPRPWGIPRP | -0.109
RRIRVRPPRLPRPRPRPTHIPRP | 0.268
RRIRSRPPRLPRPRPRPQGPPRP | -0.0522
RRIRDRPPRLPRPRPRPCPEPRP | -0.0682
RRIRLRPPRLPRPRPRPHWPPRP | 0.00985
RRIRDRPPRLPRPRPRPSEVPRP | 0.561
RRIRQRPPRLPRPRPRPYSRPRP | -0.0567
RRIRMRPPRLPRPRPRPKSDPRP | 0.466
RRIRARPPRLPRPRPRPVWQPRP | 0.129
RRIRGRPPRLPRPRPRPDRVPRP | 0.311
RRIRWRPPRLPRPRPRPDSLPRP | -0.12
RRIRDRPPRLPRPRPRPEYCPRP | -0.0172
RRIRPRPPRLPRPRPRPHYWPRP | -0.41
RRIRERPPRLPRPRPRPAHHPRP | -0.338
